In the data set the target is T1, ERF (Homo sapiens) (UniProt P50548).
T1 sequence: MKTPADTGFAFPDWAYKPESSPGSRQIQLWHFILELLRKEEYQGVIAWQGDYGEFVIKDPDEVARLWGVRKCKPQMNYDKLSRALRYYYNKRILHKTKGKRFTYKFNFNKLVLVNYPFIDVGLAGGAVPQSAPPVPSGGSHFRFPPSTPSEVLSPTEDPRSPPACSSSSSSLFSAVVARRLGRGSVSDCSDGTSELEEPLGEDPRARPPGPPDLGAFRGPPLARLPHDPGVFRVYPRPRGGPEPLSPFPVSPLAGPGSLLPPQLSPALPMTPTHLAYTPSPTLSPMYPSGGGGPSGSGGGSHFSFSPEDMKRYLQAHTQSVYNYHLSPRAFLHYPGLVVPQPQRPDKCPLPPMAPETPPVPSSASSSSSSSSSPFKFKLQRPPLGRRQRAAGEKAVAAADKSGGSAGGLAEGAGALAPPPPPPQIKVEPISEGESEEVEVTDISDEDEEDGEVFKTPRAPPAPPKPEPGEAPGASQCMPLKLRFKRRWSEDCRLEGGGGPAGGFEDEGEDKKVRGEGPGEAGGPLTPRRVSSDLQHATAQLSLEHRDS
Nature of the data set: cell_activity. The settings on record: HeLa CAT reporter; values over 30 set to 30.

Bounds are passed on as bounds.

Turning to ETS2 promoter -394 to +125, the activity (fold repression) is greater than 30.

For the origin of these results see patent US5856125.
